We go through three molecules from patent publication US20170306053A1 (Astellas, published 2017).

Usually EC50 stands for the concentration giving half of the maximal effect. The low end stands for a more potent agent, the high end for a less potent agent.

For assay [1], the target named is T1, human TLR2 protein (R&D systems Co., 2616 TR/CF) (human, UniProt O60603 21-590).
T1 construct: Bought protein captured on an anti-His IgG chip; not shown: His tag implied by capture on anti-His IgG
As to the kind of experiment: SPR (Biacore T200), human TLR2 captured on anti-His IgG, antibody as analyte, bivalent analyte model. The method, then:
In order to evaluate the binding activity of the tandem form a prepared in Example 1 to the human TLR2, SPR analysis was performed. The tandem form c and the TLR2-IgG were used as the reference antibody. For SPR analysis, Biacore T200 (GE Healthcare Japan Corporation) was used. Anti-His IgG (attached to His Capture Kit) was immobilized on CMS sensor chip using His Capture Kit (GE Healthcare Japan Corporation, 28-9950-56) and Amine Coupling Kit (GE Healthcare Japan Corporation, BR-1000-50). […] Thereafter, a solution (eight step, two fold serial dilution in the concentration range of final concentration from 100 nM to 0.781 nM) obtained by serially diluting each purified antibody (tandem form a, tandem form c, or TLR 2-IgG) with HBS-EP+buffer was added at a flow rate of 50 μL/min for 2 minutes, and the binding between the purified antibody and TLR 2 was measured. Next, HBS-EP+buffer was added at a flow rate of 50 μL/min for 5 minutes, and dissociation of the purified antibody and the human TLR2 was measured. Bivalent analyte model, Rmax was analyzed by Fit local, a binding rate constant (kₐ) and a dissociation rate constant (kd) were calculated, and kd was divided by kₐ to calculate the binding dissociation constant (KD).

The target of assay [2] is human TLR2 (endogenous, on U937 cells) (human, UniProt O60603 21-784). Description: cell-based or functional assay.
Assay [3] has as its target T2, human TLR4/MD2 (on cells) (human, UniProt O00206 24-839; Q9Y6Y9 19-160).
T2 construct: whole, on cells; Cell ELISA on human TLR4/MD2 expressing HEK 293 cells; neutralisation assays on U937 cells with endogenous TLR4/MD2; also called Human TLR4/MD2 expressing HEK 293 cells; U937 cells that endogenously express the human TLR4/MD2
As to the kind of experiment: cell ELISA on human TLR4/MD2 expressing HEK 293 cells. The method, then:
In order to evaluate the binding activity of the tandem form a (bispecific antibody format having the anti-human TLR2 antibody portion on the outer side and the anti-human TLR4 antibody portion on the inner side) prepared in Example 1 to the human TLR4, cell ELISA was performed. As reference antibodies, the tandem form c and the TLR4-IgG were used. Human TLR4/MD2 expressing HEK 293 cells were seeded at 1×10⁴ cells/well in a BD Bio Coat poly D-lysine 384 well plate (Becton Dickinson Co., Ltd.) using an α-MEM culture medium (Life Technologies Co., Ltd.) and incubated overnight. […] Twenty minutes later, 25 μL of 1 M sulfuric acid was added to stop the color reaction, and the color intensity thereof was measured with Safire II (Tecan Co., Ltd.) to evaluate the binding activity of the antibody. Using the obtained measurement results, 50% effective concentration (EC₅₀) of each antibody was calculated from 4 parameter logistic curve regression by statistical analysis software GraphPad Prism (GraphPad Software Co., Ltd.).
(An ELISA detects its analyte on a solid surface through an enzyme-linked reagent.)

The target in assay [4] is T2, human TLR4/MD2 (on cells). As to the kind of experiment: cell-based or functional assay.
Assay [5] addresses T2, human TLR4/MD2 (on cells). As to the kind of experiment: cell-based or functional assay. The source holds these as a separate data set.

Where two headings read alike, the source gives them in different places.

T2 sequence (O00206 24-839, chain 1 of 2): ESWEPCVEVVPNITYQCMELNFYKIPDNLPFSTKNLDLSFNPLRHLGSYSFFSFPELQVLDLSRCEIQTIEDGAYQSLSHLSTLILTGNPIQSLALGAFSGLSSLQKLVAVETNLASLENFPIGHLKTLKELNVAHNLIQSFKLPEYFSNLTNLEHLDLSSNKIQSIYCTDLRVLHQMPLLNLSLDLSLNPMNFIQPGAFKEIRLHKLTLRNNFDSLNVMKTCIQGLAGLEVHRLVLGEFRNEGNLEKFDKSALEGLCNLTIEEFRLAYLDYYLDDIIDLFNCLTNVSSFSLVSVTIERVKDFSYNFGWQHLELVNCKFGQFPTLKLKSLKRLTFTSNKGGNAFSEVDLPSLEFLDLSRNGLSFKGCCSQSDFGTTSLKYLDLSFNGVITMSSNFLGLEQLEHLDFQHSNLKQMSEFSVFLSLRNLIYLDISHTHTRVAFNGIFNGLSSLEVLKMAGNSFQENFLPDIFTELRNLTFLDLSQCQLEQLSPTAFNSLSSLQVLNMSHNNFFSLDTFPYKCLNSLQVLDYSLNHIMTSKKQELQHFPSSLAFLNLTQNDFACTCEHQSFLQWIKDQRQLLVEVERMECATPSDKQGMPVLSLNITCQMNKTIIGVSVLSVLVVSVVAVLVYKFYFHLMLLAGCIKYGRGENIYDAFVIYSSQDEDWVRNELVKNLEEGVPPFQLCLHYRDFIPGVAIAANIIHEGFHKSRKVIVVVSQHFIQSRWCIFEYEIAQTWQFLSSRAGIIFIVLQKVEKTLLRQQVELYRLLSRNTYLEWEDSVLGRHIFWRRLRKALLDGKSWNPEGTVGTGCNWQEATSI
T2 sequence (Q9Y6Y9 19-160, chain 2 of 2): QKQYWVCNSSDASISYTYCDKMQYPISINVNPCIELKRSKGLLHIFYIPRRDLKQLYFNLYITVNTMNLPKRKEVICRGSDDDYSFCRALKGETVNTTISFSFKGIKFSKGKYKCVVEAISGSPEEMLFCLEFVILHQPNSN
T1 sequence (O60603 21-590): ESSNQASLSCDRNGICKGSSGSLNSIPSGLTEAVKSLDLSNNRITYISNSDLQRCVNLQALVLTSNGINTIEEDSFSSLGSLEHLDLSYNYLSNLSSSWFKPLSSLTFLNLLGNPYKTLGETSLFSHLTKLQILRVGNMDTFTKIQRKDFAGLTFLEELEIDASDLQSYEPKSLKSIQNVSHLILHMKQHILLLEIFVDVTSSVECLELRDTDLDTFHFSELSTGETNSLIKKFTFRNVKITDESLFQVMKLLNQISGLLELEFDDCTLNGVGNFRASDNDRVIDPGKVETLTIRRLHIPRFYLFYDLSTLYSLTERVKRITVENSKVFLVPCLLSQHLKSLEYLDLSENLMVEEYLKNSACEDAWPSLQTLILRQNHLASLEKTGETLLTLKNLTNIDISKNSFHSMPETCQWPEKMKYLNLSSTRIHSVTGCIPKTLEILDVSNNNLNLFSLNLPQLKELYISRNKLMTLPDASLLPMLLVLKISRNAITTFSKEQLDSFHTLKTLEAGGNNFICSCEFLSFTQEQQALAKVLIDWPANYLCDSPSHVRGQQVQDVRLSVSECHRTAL
Sequence of human TLR2 (endogenous, on U937 cells) (O60603 21-784): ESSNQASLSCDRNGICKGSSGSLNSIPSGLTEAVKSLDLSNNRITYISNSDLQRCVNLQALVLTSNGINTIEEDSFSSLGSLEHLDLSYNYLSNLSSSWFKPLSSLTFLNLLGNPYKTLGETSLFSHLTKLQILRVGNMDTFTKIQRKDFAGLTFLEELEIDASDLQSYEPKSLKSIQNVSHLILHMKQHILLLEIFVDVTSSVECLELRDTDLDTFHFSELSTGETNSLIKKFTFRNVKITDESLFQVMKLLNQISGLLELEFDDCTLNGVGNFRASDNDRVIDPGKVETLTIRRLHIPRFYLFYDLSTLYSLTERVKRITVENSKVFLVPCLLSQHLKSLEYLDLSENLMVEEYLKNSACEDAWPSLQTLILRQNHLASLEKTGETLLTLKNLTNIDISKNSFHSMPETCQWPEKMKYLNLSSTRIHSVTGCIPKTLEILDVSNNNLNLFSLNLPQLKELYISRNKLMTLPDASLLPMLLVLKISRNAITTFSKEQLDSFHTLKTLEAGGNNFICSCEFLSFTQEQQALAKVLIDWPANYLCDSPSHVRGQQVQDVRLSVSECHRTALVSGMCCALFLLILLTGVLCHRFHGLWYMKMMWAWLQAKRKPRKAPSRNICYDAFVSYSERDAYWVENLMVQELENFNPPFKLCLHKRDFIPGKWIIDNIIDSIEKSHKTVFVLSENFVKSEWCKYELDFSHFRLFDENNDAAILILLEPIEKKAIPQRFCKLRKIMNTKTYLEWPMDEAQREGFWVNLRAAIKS

B1: Tandem form a (protease recognition sequence SEQ ID NO: 5; light chain linker SEQ ID NO: 9) (bispecific antibody)
chain 1: not shown
chain 2: AIQMTQSPSSLSASVGDRVTITCRASQVIRNDLGWYQQKPGKAPKFLIYAASSLQSGVPSRFSGSGSGTDFTLTISSLQPEDFATYYCLQDYNYPLTFGGGTKVEIKRTVAAPSVFIFPPSDEQLKSGTASVVCLLNNFYPREAKVQWKVDNALQSGNSQESVTEQDSKDSTYSLSSTLTLSKADYEKHKVYACEVTHQGLSSPVTKSFNRGEC
chain 3: not shown
In assay [1], B1 registered a Kd of 2.32 nM.

B2: TLR2-IgG (anti-human TLR2 antibody of IgG type) (antibody, V domains shown)
VH: QVQLQESGPGLVKPSETLSLTCTVSGGSISSFYWTWIRQPPGKGLEWIGYIHYSGSTNYNPSLKSRVTISVDTSKNQFSLTLSSVTAADTAVYYCARRRSMNWFDPWGQGTLVIVSS
VL: AIQMTQSPSSLSASVGDRVTITCRASQVIRNDLGWYQQKPGKAPKFLIYAASSLQSGVPSRFSGSGSGTDFTLTISSLQPEDFATYYCLQDYNYPLTFGGGTKVEIKR
notes: it says variable regions and human Iggamma1 / Igkappa constant regions as used in tandem form a
Turning to B2, the Kd in assay [1] worked out at 2.69 nM. In addition, the “IC50 (read off the curve); inhibition of Pam2CSK4-induced IL-6 production in U937 cells” value in assay [2] is ~0.1 nM.

B3: TLR4-IgG (anti-human TLR4 antibody of IgG type) (antibody, V domains shown)
VH: EVQLVESGGGLVQPGGSLRLSCAASGFTFDTYAMHWVRQAPGKGLEWVAGISWNSGNIGYADSVKGRFTISRDNSKNTLYLQMNSLRAEDTAVYYCAKDWDNWNLFDYWGQGTLVTVSS
VL: DIQMTQSPSSLSASVGDRVTITCRASQSISSWLAWYQQKPGKAPKLLIYKASSLESGVPSRFSGSGSGTDFTLTISSLQPEDFATYYCQQYSSYSWTFGQGTKVEIKR
notes: as for B2
In the case of B3, it took 0.38 nM to reach a half-maximal effect in assay [3] (EC50). Further, the “IC50 (M), Neutralization Activity to Human TLR4 (LPS-induced IL-6 production inhibition, U937 cells)” value in assay [4] and in assay [5] was 2.2e-12 M throughout.
